Patent US20110311522A1

Key:
[1] = molecular target: 14 strains of non-H5 viruses (H1~H13, Chicken NDV); experiment: cell-based or functional assay
[2] = molecular target: H5 virus strain (fifteen strains of H5N1 viruses); experiment: cell-based or functional assay
[3] = molecular target: hemagglutinin (HA) of H5N1 virus strain A1 (H5N1 avian influenza virus, strain A1); experiment: cell-based or functional assay
[4] = molecular target: hemagglutinin (HA) of H5N1 virus strain A2 (H5N1 avian influenza virus, strain A2); experiment: cell-based or functional assay
[5] = molecular target: hemagglutinin (HA) of H5N1 virus strain A3 (H5N1 avian influenza virus, strain A3); experiment: cell-based or functional assay
[6] = molecular target: hemagglutinin (HA) of H5N1 virus strain A6 (H5N1 avian influenza virus, strain A6); experiment: cell-based or functional assay
[7] = molecular target: hemagglutinin (HA) of H5N1 virus strain A7 (H5N1 avian influenza virus, strain A7); experiment: cell-based or functional assay
[8] = molecular target: hemagglutinin (HA) of H5N1 virus strain A8 (H5N1 avian influenza virus, strain A8); experiment: cell-based or functional assay
[9] = molecular target: hemagglutinin (HA) of H5N1 virus strain B1 (H5N1 avian influenza virus, strain B1); experiment: cell-based or functional assay
[10] = molecular target: hemagglutinin (HA) of H5N1 virus strain B3 (H5N1 avian influenza virus, strain B3); experiment: cell-based or functional assay
[11] = molecular target: hemagglutinin (HA) of H5N1 virus strain B4 (H5N1 avian influenza virus, strain B4); experiment: cell-based or functional assay
[12] = molecular target: hemagglutinin (HA) of H5N1 virus strain B6 (H5N1 avian influenza virus, strain B6); experiment: cell-based or functional assay
[13] = molecular target: hemagglutinin (HA) of H5N1 virus strain B7 (H5N1 avian influenza virus, strain B7); experiment: cell-based or functional assay
[14] = molecular target: hemagglutinin (HA) of H5N1 virus strain B8 (H5N1 avian influenza virus, strain B8); experiment: cell-based or functional assay
[15] = molecular target: hemagglutinin (HA) of H5N1 virus strain C2 (H5N1 avian influenza virus, strain C2); experiment: cell-based or functional assay
[16] = molecular target: hemagglutinin (HA) of H5N1 virus strain C3 (H5N1 avian influenza virus, strain C3); experiment: cell-based or functional assay
[17] = molecular target: hemagglutinin (HA) of H5N1 virus strain D1 (H5N1 avian influenza virus, strain D1); experiment: cell-based or functional assay
[18] = molecular target: hemagglutinin (HA) of H5N1 virus strain D2 (H5N1 avian influenza virus, strain D2); experiment: cell-based or functional assay
[19] = molecular target: hemagglutinin (HA) of H5N1 virus strain D3 (H5N1 avian influenza virus, strain D3); experiment: cell-based or functional assay
[20] = molecular target: hemagglutinin (HA) of H5N1 virus strain E1 (H5N1 avian influenza virus, strain E1); experiment: cell-based or functional assay
[21] = molecular target: hemagglutinin (HA) of H5N1 virus strain E2 (H5N1 avian influenza virus, strain E2); experiment: cell-based or functional assay
[22] = molecular target: hemagglutinin (HA) of H5N1 virus strain F2 (H5N1 avian influenza virus, strain F2); experiment: cell-based or functional assay
[23] = molecular target: hemagglutinin (HA) of H5N1 virus strain F3 (H5N1 avian influenza virus, strain F3); experiment: cell-based or functional assay
[24] = molecular target: hemagglutinin (HA) of H5N1 virus strain F4 (H5N1 avian influenza virus, strain F4); experiment: cell-based or functional assay
[25] = molecular target: hemagglutinin (HA) of H5N1 virus strain FJ1.5 (H5N1 avian influenza virus, strain FJ1.5); experiment: cell-based or functional assay
[26] = molecular target: hemagglutinin (HA) of H5N1 virus strain G1 (H5N1 avian influenza virus, strain G1); experiment: cell-based or functional assay
[27] = molecular target: hemagglutinin (HA) of H5N1 virus strain GD1.1 (H5N1 avian influenza virus, strain GD1.1); experiment: cell-based or functional assay
[28] = molecular target: hemagglutinin (HA) of H5N1 virus strain GD3.1 (H5N1 avian influenza virus, strain GD3.1); experiment: cell-based or functional assay
[29] = molecular target: hemagglutinin (HA) of H5N1 virus strain GD4.1 (H5N1 avian influenza virus, strain GD4.1); experiment: cell-based or functional assay
[30] = molecular target: hemagglutinin (HA) of H5N1 virus strain H2 (H5N1 avian influenza virus, strain H2); experiment: cell-based or functional assay
[31] = molecular target: hemagglutinin (HA) of H5N1 virus strain HN3.1 (H5N1 avian influenza virus, strain HN3.1); experiment: cell-based or functional assay
[32] = molecular target: hemagglutinin (HA) of H5N1 virus strain IDN1.1 (H5N1 avian influenza virus, strain IDN1.1); experiment: cell-based or functional assay
[33] = molecular target: hemagglutinin (HA) of H5N1 virus strain IDN3.1 (H5N1 avian influenza virus, strain IDN3.1); experiment: cell-based or functional assay
[34] = molecular target: hemagglutinin (HA) of H5N1 virus strain IDN6.1 (H5N1 avian influenza virus, strain IDN6.1); experiment: cell-based or functional assay
[35] = molecular target: hemagglutinin (HA) of H5N1 virus strain IDN8.1 (H5N1 avian influenza virus, strain IDN8.1); experiment: cell-based or functional assay
[36] = molecular target: hemagglutinin (HA) of H5N1 virus strain Mixed1.1 (H5N1 avian influenza virus, strain Mixed1.1); experiment: cell-based or functional assay
[37] = molecular target: hemagglutinin (HA) of H5N1 virus strain QH1.1 (H5N1 avian influenza virus, strain QH1.1); experiment: cell-based or functional assay
[38] = molecular target: hemagglutinin (HA) of H5N1 virus strain VNM2-2.1 (H5N1 avian influenza virus, strain VNM2-2.1); experiment: cell-based or functional assay
[39] = molecular target: hemagglutinin (HA) of H5N1 virus strain VTM1.1 (H5N1 avian influenza virus, strain VTM1.1); experiment: cell-based or functional assay
[40] = molecular target: hemagglutinin (HA) of H5N1 virus strain VTM4.1 (H5N1 avian influenza virus, strain VTM4.1); experiment: cell-based or functional assay
[41] = molecular target: hemagglutinin (HA) of H5N1 virus strain YN2.1 (H5N1 avian influenza virus, strain YN2.1); experiment: cell-based or functional assay
[42] = molecular target: phage peptides (screening product screened with 8G9 from twelve-peptide library)

B1: monoclonal antibody 13D4 (antibody, V domains shown)
VH: QVQLQQSGAELMKPGASVKISCKATGYTFSGHWIEWVKQRPGHGLEWIGEILPGSGNIHYNEKFKGKATFAADTSSNTAYMQLSSLTSEDSAVYYCARLGTTAVERDWYFDVWGQGTTVTESL
VL: DIVMTQSQKFMSASVGDRVSVTCKASQNVGTHLAWYQQKPGQSPKALIYSASYRYSGVPDRFTGSGSGTDFTLTISNVQSGDLADYFCQQYNNFPLTFGAGTKLEIKR
- Positive number/total virus number, hemagglutination inhibition assay (of 14 virus strains positive) [1]: 0
- Positive number/total virus number, hemagglutination inhibition assay (of 15 virus strains positive) [2]: 15
- HI titer (hemagglutinin inhibition assay) (n (HI titer = 2^n)) [3]: > 8
- HI titer (hemagglutinin inhibition assay) (n (HI titer = 2^n)) [4]: 7
- HI titer (hemagglutinin inhibition assay) (n (HI titer = 2^n)) [5]: 6
- HI titer (hemagglutinin inhibition assay) (n (HI titer = 2^n)) [6]: 3
- HI titer (hemagglutinin inhibition assay) (n (HI titer = 2^n)) [7]: 4
- HI titer (hemagglutinin inhibition assay) (n (HI titer = 2^n)) [8]: 5
- HI titer (hemagglutinin inhibition assay) (n (HI titer = 2^n)) [9]: > 8
- HI titer (hemagglutinin inhibition assay) (n (HI titer = 2^n)) [10]: 3
- HI titer (hemagglutinin inhibition assay) (n (HI titer = 2^n)) [11]: 5
- HI titer (hemagglutinin inhibition assay) (n (HI titer = 2^n)) [12]: > 8
- HI titer (hemagglutinin inhibition assay) (n (HI titer = 2^n)) [13]: 7
- HI titer (hemagglutinin inhibition assay) (n (HI titer = 2^n)) [14]: > 8
- HI titer (hemagglutinin inhibition assay) (n (HI titer = 2^n)) [15]: 3
- HI titer (hemagglutinin inhibition assay) (n (HI titer = 2^n)) [16]: 4
- HI titer (hemagglutinin inhibition assay) (n (HI titer = 2^n)) [17]: 5
- HI titer (hemagglutinin inhibition assay) (n (HI titer = 2^n)) [18]: 5
- HI titer (hemagglutinin inhibition assay) (n (HI titer = 2^n)) [19]: 6
- HI titer (hemagglutinin inhibition assay) (n (HI titer = 2^n)) [20]: 7
- HI titer (hemagglutinin inhibition assay) (n (HI titer = 2^n)) [21]: 6
- HI titer (hemagglutinin inhibition assay) (n (HI titer = 2^n)) [22]: 5
- HI titer (hemagglutinin inhibition assay) (n (HI titer = 2^n)) [23]: > 8
- HI titer (hemagglutinin inhibition assay) (n (HI titer = 2^n)) [24]: 1
- Hamaglutinin inhibition titer [25]: 12800 titer
- Neutralization titer [25]: 12800 titer
- HI titer (hemagglutinin inhibition assay) (n (HI titer = 2^n)) [26]: 4
- Hamaglutinin inhibition titer [27]: 6400 titer
- Neutralization titer [27]: 12800 titer
- Hamaglutinin inhibition titer [28]: 12800 titer
- Neutralization titer [28]: 12800 titer
- Hamaglutinin inhibition titer [29]: 12800 titer
- Neutralization titer [29]: 12800 titer
- HI titer (hemagglutinin inhibition assay) (n (HI titer = 2^n)) [30]: 3
- Hamaglutinin inhibition titer [31]: 12800 titer
- Neutralization titer [31]: 12800 titer
- Hamaglutinin inhibition titer [32]: 12800 titer
- Neutralization titer [32]: 12800 titer
- Hamaglutinin inhibition titer [33]: 12800 titer
- Neutralization titer [33]: 12800 titer
- Hamaglutinin inhibition titer [34]: 12800 titer
- Neutralization titer [34]: 12800 titer
- Hamaglutinin inhibition titer [35]: 12800 titer
- Neutralization titer [35]: 12800 titer
- Hamaglutinin inhibition titer [36]: 6400 titer
- Neutralization titer [36]: 12800 titer
- Hamaglutinin inhibition titer [37]: 12800 titer
- Neutralization titer [37]: 12800 titer
- Hamaglutinin inhibition titer [38]: 12800 titer
- Neutralization titer [38]: 12800 titer
- Hamaglutinin inhibition titer [39]: 6400 titer
- Neutralization titer [39]: 12800 titer
- Hamaglutinin inhibition titer [40]: 12800 titer
- Neutralization titer [40]: 12800 titer
- Hamaglutinin inhibition titer [41]: 12800 titer
- Neutralization titer [41]: 12800 titer

B2: monoclonal antibody 8G9 (antibody, V domains shown)
VH: QVQLQQPGVELVRPGASVKLSCKASGYTFTSFWMNWVKQRPDQGLEWIGRIDPYDSETHYNQKFKDKAILTVDKSSSTAYMQLSSLTSEDSAVYYCGRGIATLMVLPDYWGQGTSVTVSS
VL: DILMTQSPSSMSVSLGDTVSITCHASQDISSNMGWLQQKPGKSLKGLIYHGTNLEDGVPSRFSGSGSGPDYSLTISSLESEDFADYYCVQYIQFPWTFGGGTKLEIKR
- OD value relative to that of the control antibodies [42]: > 3 fold
- Positive number/total virus number, hemagglutination inhibition assay (of 14 virus strains positive) [1]: 0
- Positive number/total virus number, hemagglutination inhibition assay (of 15 virus strains positive) [2]: 15
- Hamaglutinin inhibition titer [25]: 12800 titer
- Neutralization titer [25]: 12800 titer
- Hamaglutinin inhibition titer [27]: 12800 titer
- Neutralization titer [27]: 12800 titer
- Hamaglutinin inhibition titer [28]: 12800 titer
- Neutralization titer [28]: 12800 titer
- Hamaglutinin inhibition titer [29]: 12800 titer
- Neutralization titer [29]: 12800 titer
- Hamaglutinin inhibition titer [31]: 12800 titer
- Neutralization titer [31]: 12800 titer
- Hamaglutinin inhibition titer [32]: 12800 titer
- Neutralization titer [32]: 12800 titer
- Hamaglutinin inhibition titer [33]: 12800 titer
- Neutralization titer [33]: 12800 titer
- Hamaglutinin inhibition titer [34]: 12800 titer
- Neutralization titer [34]: 12800 titer
- Hamaglutinin inhibition titer [35]: 12800 titer
- Neutralization titer [35]: 12800 titer
- Hamaglutinin inhibition titer [36]: 12800 titer
- Neutralization titer [36]: 12800 titer
- Hamaglutinin inhibition titer [37]: 12800 titer
- Neutralization titer [37]: 12800 titer
- Hamaglutinin inhibition titer [38]: 12800 titer
- Neutralization titer [38]: 12800 titer
- Hamaglutinin inhibition titer [39]: 12800 titer
- Neutralization titer [39]: 12800 titer
- Hamaglutinin inhibition titer [40]: 12800 titer
- Neutralization titer [40]: 12800 titer
- Hamaglutinin inhibition titer [41]: 12800 titer
- Neutralization titer [41]: 12800 titer
